Source: the supplement of paper PMC7877785
± gives the uncertainty stated by the source.

Experiment: self-splicing fitness, log relative to wild type (ln ratio); higher = more splicing; Tetrahymena group I intron in knt gene, E. coli kanamycin selection, DiMSum; sequences stand for … in CUCUCU…GGAGGGAAAAGUUAUCAGGCAUGCACCUGGUAGCUAGUCUUUAAACCAAUAGAUUGCAUCGGUUUAAAAGGCAAGACCGUCAAAUUGCGGGAAAGGGGUCAACAGCCGUUCAGUACCAAGUCUCAGGGGAAACUUUGAGAUGGCCUUGCAAAGGGUAUGGUAAUAAGCUGACGGACAUGGUCCUAACCACGCAGCCAAGUCCUAAGUCAACAGAUCUUCUGUUGAUAUGGAUGCAGUUCACAGACUAAAUGUCGGUCGGGGAAGAUGUAUUCUUCUCAUAAGAUAUAGUCGGACCUCUCCUUAAUGGGAGCUAGCGGAUGAAGUGAUGCAACACUGGAGCCGCUGGGAACUAAUUUGUAUGCGAAAGUAUAUUGAUUAGUUUUGGAGUACUCGUGGUCG
Summary of the method: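 The eight P1ex-region nucleotides of an intron in the knt kanamycin-resistance gene on pET-22b(+) were all randomised and the library put into E. coli BL21(DE3). Six replicate transformations were grown overnight at 37°C or 30°C on LB agar with or without 25 μg/mL kanamycin, together with 100 μg/mL carbenicillin, 50 μM IPTG and 0.2% rhamnose. Colonies were pooled and amplicon-sequenced on an Illumina HiSeq 2500. Fitness from DiMSum is the error-weighted combination of wild-type-normalised replicate fold changes, kanamycin over none.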

Sequence | self-splicing fitness (ln) (30 °C) | self-splicing fitness (ln) (37 °C)
CACCAGCAAUAUUACGCUCU | -3.85 ± 0.2 | -1.48 ± 0.15
CACCAGCAAUAUUACGGACG | -0.37 ± 0.058 | 0.374 ± 0.08
CACCAGCAAUAUUACGGAGA | -1.66 ± 0.11 | -2.16 ± 0.14
CACCAGCAAUAUUACGGCAC | -2.38 ± 0.12 | -1.09 ± 0.11
CACCAGCAAUAUUACGGUCC | -0.606 ± 0.074 | -0.037 ± 0.11
CACCAGCAAUAUUACGGUUU | -0.79 ± 0.045 | -0.0932 ± 0.065
CACCAGCAAUAUUACGUCAG | -0.342 ± 0.051 | 0.0517 ± 0.067
CACCAGCAAUAUUACGUGAU | -3.47 ± 0.12 | -3 ± 0.19
CACCAGCAAUAUUACGUUCU | -3.76 ± 0.17 | -2.65 ± 0.14
CACGAGCAAUAUUACGAAAG | -3.34 ± 0.3 | -2.22 ± 0.36
CACGAGCAAUAUUACGAAGA | -2.89 ± 0.22 | -3.38 ± 0.27
CACGAGCAAUAUUACGACGA | -3.66 ± 0.48 | -2.24 ± 0.26
CACGAGCAAUAUUACGAGAU | -4.36 ± 0.32 | -3.09 ± 0.26
CACGAGCAAUAUUACGAGCA | -4.24 ± 0.39 | -3.46 ± 0.4
CACGAGCAAUAUUACGAGGU | -4.07 ± 0.28 | -3.23 ± 0.28
CACGAGCAAUAUUACGCCCU | -2.92 ± 0.3 | 
CACGAGCAAUAUUACGCGAG | -1.52 ± 0.17 | -2.5 ± 0.26
CACGAGCAAUAUUACGCGUU | -4.28 ± 0.47 | -2.1 ± 0.18
CACGAGCAAUAUUACGCUGU | -3.55 ± 0.18 | -3.31 ± 0.18
CACGAGCAAUAUUACGGAAA | -2.33 ± 0.22 | -1.8 ± 0.19
CACGAGCAAUAUUACGGCCU | -4.34 ± 0.36 | -3.06 ± 0.3
CACGAGCAAUAUUACGGCGG | -2.37 ± 0.092 | -1.14 ± 0.11
CACGAGCAAUAUUACGGGCC | -3.08 ± 0.38 | -2.24 ± 0.31
CACGAGCAAUAUUACGGGGC | -3.02 ± 0.14 | -2.42 ± 0.19

Sequence | self-splicing fitness (ln) (30 °C) | self-splicing fitness (ln) (37 °C)
CACGAGCAAUAUUACGGGGU | -4.09 ± 0.23 | -2.67 ± 0.16
CACGAGCAAUAUUACGGGUC | -4.31 ± 0.26 | -1.99 ± 0.15
CACGAGCAAUAUUACGGUAC | -2.69 ± 0.21 | -2.81 ± 0.3
CACGAGCAAUAUUACGUACG | -2.38 ± 0.14 | -0.807 ± 0.15
CACGAGCAAUAUUACGUCCU | -3.93 ± 0.3 | -2.81 ± 0.29
CACGAGCAAUAUUACGUGAA | -3.63 ± 0.14 | -2.49 ± 0.12
CACGAGCAAUAUUACGUUAG | -2.94 ± 0.16 | -2.64 ± 0.18
CACGAGCAAUAUUACGUUCG | -4.18 ± 0.29 | -2.75 ± 0.21
CACUAGCAAUAUUACGAACA | -3.04 ± 0.42 | -2.83 ± 0.3
CACUAGCAAUAUUACGAAUC | -3.91 ± 0.19 | -2.58 ± 0.22
CACUAGCAAUAUUACGAGGU | -5.22 ± 0.45 | -2.6 ± 0.23
CACUAGCAAUAUUACGAGUU | -1.83 ± 0.085 | -0.633 ± 0.093
CACUAGCAAUAUUACGAUAG | -0.974 ± 0.1 | -0.493 ± 0.11
CACUAGCAAUAUUACGAUCC | -2.56 ± 0.33 | -1.91 ± 0.34
CACUAGCAAUAUUACGAUGC | -3.76 ± 0.18 | -3.05 ± 0.19
CACUAGCAAUAUUACGAUGG | -0.786 ± 0.062 | -0.324 ± 0.084
CACUAGCAAUAUUACGCAGC | -3.17 ± 0.31 | -2.28 ± 0.37
CACUAGCAAUAUUACGCCAU | -3.88 ± 0.44 | -2.45 ± 0.28
CACUAGCAAUAUUACGCCGU | -1.95 ± 0.35 | -1.18 ± 0.35
CACUAGCAAUAUUACGCCUA | -3.31 ± 0.19 | -2.36 ± 0.16
CACUAGCAAUAUUACGCCUC |  | -1.72 ± 0.23
CACUAGCAAUAUUACGCGUA | -1.84 ± 0.093 | -0.0161 ± 0.075
CACUAGCAAUAUUACGCGUC | -1.84 ± 0.1 | -2.75 ± 0.21
CACUAGCAAUAUUACGCUUA | -2.65 ± 0.21 | -1.2 ± 0.13

Sequence | self-splicing fitness (ln) (30 °C) | self-splicing fitness (ln) (37 °C)
CACUAGCAAUAUUACGGCUA | -3.46 ± 0.47 | -2.1 ± 0.32
CACUAGCAAUAUUACGGUCC | -2.4 ± 0.12 | -1.29 ± 0.15
CACUAGCAAUAUUACGUAAG | 0.264 ± 0.061 | 0.0438 ± 0.073
CACUAGCAAUAUUACGUAGG | -1.04 ± 0.1 | -0.696 ± 0.14
CACUAGCAAUAUUACGUCAG | -0.817 ± 0.062 | 0.566 ± 0.071
CACUAGCAAUAUUACGUCGC | -3.66 ± 0.24 | -2.66 ± 0.27
CACUAGCAAUAUUACGUGGC | -3.89 ± 0.23 | -3.28 ± 0.2
CACUAGCAAUAUUACGUUAC | -3.4 ± 0.14 | -2.77 ± 0.16
CAGAAGCAAUAUUACGACUA | 0.00435 ± 0.063 | 0.187 ± 0.081
CAGAAGCAAUAUUACGAUGA | -2.08 ± 0.12 | -0.735 ± 0.086
CAGAAGCAAUAUUACGAUUU | -2.06 ± 0.096 | -1.16 ± 0.11
CAGAAGCAAUAUUACGCAAA | -3.57 ± 0.35 | -1.81 ± 0.26
CAGAAGCAAUAUUACGCCAC |  | -0.904 ± 0.4
CAGAAGCAAUAUUACGCCAU | -2.66 ± 0.14 | -2.77 ± 0.18
CAGAAGCAAUAUUACGCCGA | -3.49 ± 0.41 | -2.75 ± 0.33
CAGAAGCAAUAUUACGCGAC |  | -2.94 ± 0.32
CAGAAGCAAUAUUACGCGAG | -2.62 ± 0.097 | -1.49 ± 0.096
CAGAAGCAAUAUUACGGAGC | -3.14 ± 0.34 | -2.32 ± 0.31
CAGAAGCAAUAUUACGGAUG | -2.75 ± 0.17 | -2.6 ± 0.21
CAGAAGCAAUAUUACGGCCG | -0.0187 ± 0.082 | -0.102 ± 0.14
CAGAAGCAAUAUUACGGUCU | -1.52 ± 0.064 | -1.09 ± 0.082
CAGAAGCAAUAUUACGUACA | -2.14 ± 0.11 | -0.932 ± 0.12
CAGAAGCAAUAUUACGUAUU | -3.79 ± 0.23 | -2.28 ± 0.15
CAGAAGCAAUAUUACGUCGC | -3.55 ± 0.23 | -2.76 ± 0.28

Sequence | self-splicing fitness (ln) (30 °C) | self-splicing fitness (ln) (37 °C)
CAGAAGCAAUAUUACGUGCA | -2.49 ± 0.14 | -1.75 ± 0.14
CAGCAGCAAUAUUACGAACU | -2.68 ± 0.16 | -2.11 ± 0.14
CAGCAGCAAUAUUACGACGU | -0.896 ± 0.076 | -0.529 ± 0.079
CAGCAGCAAUAUUACGAGCU | -3.07 ± 0.21 | -1.76 ± 0.2
CAGCAGCAAUAUUACGCAUC | -2.71 ± 0.12 | -1.16 ± 0.1
CAGCAGCAAUAUUACGCCAU | -3.12 ± 0.24 | -1.78 ± 0.21
CAGCAGCAAUAUUACGCCUC | -1.98 ± 0.13 | -0.839 ± 0.14
CAGCAGCAAUAUUACGCGGU | -1.52 ± 0.1 | -1.74 ± 0.18
CAGCAGCAAUAUUACGCGUU | -3.04 ± 0.14 | -2.45 ± 0.17
CAGCAGCAAUAUUACGCUUC | -3.43 ± 0.19 | -2.63 ± 0.28
CAGCAGCAAUAUUACGCUUG | -2.88 ± 0.12 | -2.61 ± 0.19
CAGCAGCAAUAUUACGCUUU | -2.76 ± 0.14 | -1.63 ± 0.12
CAGCAGCAAUAUUACGGAAC | -1.79 ± 0.3 | -1.87 ± 0.44
CAGCAGCAAUAUUACGGAAU | -4.16 ± 0.24 | -1.95 ± 0.16
CAGCAGCAAUAUUACGGACG | -0.284 ± 0.069 | -0.581 ± 0.081
CAGCAGCAAUAUUACGGAGC | -3.3 ± 0.33 | -2.68 ± 0.39
CAGCAGCAAUAUUACGGCAC | -3.25 ± 0.15 | -0.851 ± 0.17
CAGCAGCAAUAUUACGGGAU | -4.61 ± 0.22 | -2.35 ± 0.12
CAGCAGCAAUAUUACGGGGC | -3.66 ± 0.14 | -2.45 ± 0.15
CAGCAGCAAUAUUACGGGUC | -2.33 ± 0.14 | -1.96 ± 0.19
CAGCAGCAAUAUUACGGUAC | -3.46 ± 0.14 | -2.26 ± 0.14
CAGCAGCAAUAUUACGGUCG | 0.264 ± 0.053 | 0.584 ± 0.08
CAGCAGCAAUAUUACGGUGA | -2 ± 0.083 | -0.913 ± 0.086
CAGCAGCAAUAUUACGUGAU | -3.66 ± 0.15 | -1.78 ± 0.14
